Numbering of substitutions follows the chain as printed.
T1: recombinant tetanus toxin fragment C (rTTC) (Clostridium tetani, UniProt P04958 865-1315)
T1 sequence: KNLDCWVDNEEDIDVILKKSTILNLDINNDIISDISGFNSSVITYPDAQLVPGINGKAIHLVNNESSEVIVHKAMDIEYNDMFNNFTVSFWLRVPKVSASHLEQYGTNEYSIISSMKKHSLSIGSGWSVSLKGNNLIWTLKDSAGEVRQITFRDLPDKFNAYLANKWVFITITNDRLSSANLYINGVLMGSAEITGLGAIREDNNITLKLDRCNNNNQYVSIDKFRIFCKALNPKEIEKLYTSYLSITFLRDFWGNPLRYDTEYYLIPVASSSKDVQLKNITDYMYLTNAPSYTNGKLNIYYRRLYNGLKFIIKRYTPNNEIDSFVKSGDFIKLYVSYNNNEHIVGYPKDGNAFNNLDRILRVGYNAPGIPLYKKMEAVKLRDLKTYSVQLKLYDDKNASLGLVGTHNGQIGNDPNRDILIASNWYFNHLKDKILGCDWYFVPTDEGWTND

T2: recombinant tetanus toxin fragment C (rTTC) (Clostridium tetani, UniProt P04958 865-1315)
T2 sequence: T1 sequence

B1: SVT16 (VHH)
VHH: QVQLQESGGGSVQAGDSLRLSCAASGRTISNYAMGWFRQAPGKQREFVAAISRSDNTYYTDSVKGRFTISRDNAKNTLYLQMNSLKPEETAVYYCAADPNLMYESKWKYRALEAWGQGTLVTVSS
B2: SVT25 (VHH)
VHH: B1 VHH with S11L, D16G, N31V, A74V, S105T
B3: SVT15 (VHH)
VHH: QVQLQESGGGLVQTGGSLRLSCRASGRAFANYHFGWFRQAPGKDREFVASISWKGGSTYYANFALGRFTSSVDRAESSVYLQMSGLTPEDTATYYCAAHDGGDWNYHTGMDYWGKGILVTVSS
B4: SVT29 (VHH)
VHH: B3 VHH with R19T, S25Y, A30D, Y60R, D73N, A75G, Q82H
B5: SVT13 (VHH)
VHH: QVQLQESGGGLVQAGGSLRLSCAVSGTNFDDYAIGWFRQAPGKRREAVACISKTDGVTRYGNGVKGRFTISSDEARNTVFLQMNDLKDEDTAIYYCIGDFKSCGMGYKPIDHWGRGIQVTVSS
B6: SVT22 (VHH)
VHH: QVQLQESGGGLVQAGESLRLSCTASGISFDDYAIGWFRQAPGQQRKGVACISKADGRTDYLGSVKGRFTLSTDNTKNTVHLQMNNLKPEDTALYTCAAEYKSCGMGYKPIDYWGQGMQVTVSS
B7: SVT20 (VHH)
VHH: QVQLQQSGGGLVQAGGSLRLSCAASGRTMSSYAMGWFRQAPGKQREFVAAISRSGGNTYYTDSVKGRFTISRDNAKNTLYLQMNSLKPEETAVYYCAADPNLMYESKWKYRALEAWGQGTLVTVSS
B8: SVT34 (VHH)
VHH: B7 VHH with Q6E, A14P, M29I, T69I, S85N
B9: SVT08 (VHH)
VHH: QVQLQESGGGSVQAGGSLRLSCTASEFSYNDYTIAWFRRAAGKGRVEDGEGVASITTSYDRAYDNRIHYGDSVKGRFTISRDNAKNTVYLQMTNLNPSDTAVYYCGLDITPPGGIGASLTEGFLFDYWGQGTQVTVSS
B10: SVT31 (VHH)
VHH: B9 VHH with R19T, T23A, T57K, G70A, N94S, G106A
B11: SVT06 (VHH)
VHH: QVQLQESGGGSVQAGGSLRLSCTASELSYDDYTIAWFRRAAGEGRVEDGEGVASITKSYDRAYDNKINYGHSVKGRFTISRDNAKNTVYLQMTDLLPSDTAVYYCALDITPPGGVGASLTEGFLFDYWGQGTQVTVSS
B12: SVT05 (VHH)
VHH: QVQLQESGGGLVQPGGSLRLSCSASGFSFTDDYGIGWFRSGPGKGREAVAPIADREAVAAIALSDGNTYYSASAKGRFTISRDNAKSTAYLQMNNLKPEDTATYYCAADFWGYGMSWPMATLWEYWGQGIQVTVSS
B13: SVT25L (VHH)
VHH: B1 VHH with S11L, D16G, N31V, A74V, S105T
B14: SVT29L (VHH)
VHH: B3 VHH with R19T, S25Y, A30D, Y60R, D73N, A75G, Q82H
B15: SVT20L (VHH)
VHH: B7 VHH
B16: SVT31L (VHH)
VHH: B9 VHH with R19T, T23A, T57K, G70A, N94S, G106A
B17: SVT05L (VHH)
VHH: B12 VHH

molecular target: T3, tetanus neurotoxin (TeNT), authentic tetanus holotoxin (Clostridium tetani, UniProt P04958 2-1315); experiment: GT1b-TeNT inhibition ELISA (no SDA: 1.302, 1.257)
T3 sequence (P04958 2-457 limits assumed, chain 1 of 2): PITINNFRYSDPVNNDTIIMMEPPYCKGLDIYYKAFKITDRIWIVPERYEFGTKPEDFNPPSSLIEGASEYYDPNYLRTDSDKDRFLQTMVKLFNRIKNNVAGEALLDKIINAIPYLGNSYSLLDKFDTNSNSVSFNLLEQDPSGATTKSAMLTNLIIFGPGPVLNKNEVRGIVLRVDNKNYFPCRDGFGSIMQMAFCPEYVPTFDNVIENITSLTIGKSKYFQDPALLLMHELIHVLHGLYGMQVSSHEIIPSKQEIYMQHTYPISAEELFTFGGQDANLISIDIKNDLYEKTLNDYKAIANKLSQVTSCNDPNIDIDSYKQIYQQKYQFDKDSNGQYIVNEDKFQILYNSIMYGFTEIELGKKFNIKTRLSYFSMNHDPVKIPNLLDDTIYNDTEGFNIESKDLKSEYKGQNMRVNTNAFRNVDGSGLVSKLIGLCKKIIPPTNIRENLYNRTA
T3 sequence (P04958 458-1315 limits assumed, chain 2 of 2): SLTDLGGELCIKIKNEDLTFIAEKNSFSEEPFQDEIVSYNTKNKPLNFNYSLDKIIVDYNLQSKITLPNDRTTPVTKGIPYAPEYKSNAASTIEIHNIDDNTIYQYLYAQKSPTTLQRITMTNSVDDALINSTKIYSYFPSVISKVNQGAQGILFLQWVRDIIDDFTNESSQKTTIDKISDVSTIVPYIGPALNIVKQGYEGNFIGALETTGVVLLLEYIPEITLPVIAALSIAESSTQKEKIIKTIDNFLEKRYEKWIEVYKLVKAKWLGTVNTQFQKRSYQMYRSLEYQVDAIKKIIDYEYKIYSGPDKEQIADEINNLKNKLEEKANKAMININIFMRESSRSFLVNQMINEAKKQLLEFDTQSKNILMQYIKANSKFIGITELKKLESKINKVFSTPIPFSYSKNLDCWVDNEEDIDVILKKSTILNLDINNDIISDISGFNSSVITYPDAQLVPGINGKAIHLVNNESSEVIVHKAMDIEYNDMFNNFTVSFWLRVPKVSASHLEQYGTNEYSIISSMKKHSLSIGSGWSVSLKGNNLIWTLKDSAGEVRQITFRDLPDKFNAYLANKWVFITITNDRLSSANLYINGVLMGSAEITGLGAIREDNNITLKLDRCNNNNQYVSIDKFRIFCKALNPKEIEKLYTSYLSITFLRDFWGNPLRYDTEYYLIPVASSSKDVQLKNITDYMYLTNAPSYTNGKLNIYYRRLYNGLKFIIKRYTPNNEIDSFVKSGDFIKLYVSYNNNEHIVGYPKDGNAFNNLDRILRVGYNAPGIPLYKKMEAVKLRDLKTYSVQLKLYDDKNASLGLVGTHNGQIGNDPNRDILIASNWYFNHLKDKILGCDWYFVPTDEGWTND

Binder | absorbance at 450 nm [A450]
B1 | 0.12
B2 | 0.139
B3 | 0.19
B4 | 0.152
B5 | 0.196
B6 | 0.137
B7 | 0.132
B8 | 0.117
B9 | 0.746
B10 | 0.105
B11 | 0.72
B12 | 0.985

molecular target: T4, tetanus neurotoxin (TeNT), authentic tetanus holotoxin (Clostridium tetani, UniProt P04958 2-1315); experiment: GT1b-TeNT inhibition ELISA, unlabelled binder
T4 sequence (P04958 2-457 limits assumed, chain 1 of 2): as the sequence (P04958 2-457 limits assumed, chain 1 of 2) above
T4 sequence (P04958 458-1315 limits assumed, chain 2 of 2): as the sequence (P04958 458-1315 limits assumed, chain 2 of 2) above

Binder | minimal absorbance at 450 nm
B13 | 0.106
B14 | 0.135
B15 | 0.117
B16 | 0.568
B17 | 0.655

molecular target: T3, tetanus neurotoxin (TeNT), authentic …; experiment: ELISA, directly coated TeNT, E. coli supernatant

Binder | absorbance at 450 nm [A450]
B1 | 1.04
B2 | 1.14
B3 | 1.03
B4 | 1.28
B5 | 0.762
B6 | 1.08
B7 | 1.08
B8 | 1.43
B9 | 1.07
B10 | 1.38
B11 | 1.04
B12 | 1.04

molecular target: T4, tetanus neurotoxin (TeNT), authentic …; experiment: ELISA, TeNT captured with cAb-TT2, biotinylated binder

Binder | EC resulting in A450 0.2 [ng/mL] | maximal absorbance at 450 nm
B13 | 84 | 0.302
B14 | 14 | 0.596
B15 | 4.5 | 0.535
B16 | 1.5 | 1.03
B17 | 1.7 | 0.622

molecular target: T1, recombinant tetanus toxin fragment C …; experiment: ELISA, directly coated rTTC, unlabelled binder

Binder | maximal absorbance at 450 nm
B13 | 0.936
B14 | 0.58
B15 | 0.967
B16 | 0.483
B17 | 0.604

molecular target: T2, recombinant tetanus toxin fragment C …; experiment: ELISA, directly coated rTTC, E. coli supernatant

Binder | absorbance at 450 nm [A450]
B1 | 0.151
B2 | 0.211
B3 | 0.099
B4 | 0.111
B5 | 0.128
B6 | 0.138
B7 | 0.165
B8 | 0.16
B9 | 0.13
B10 | 0.218
B11 | 0.105
B12 | 0.108

molecular target: T4, tetanus neurotoxin (TeNT), authentic …; experiment: GT1b-TeNT inhibition ELISA, EC at A450 0.59

Binder | concentration giving A450 of 0.59 [µg/mL]
B13 | 0.133
B14 | 0.114
B15 | 0.039
B16 | 0.986
B17 | > 1

molecular target: T4, tetanus neurotoxin (TeNT), authentic …; experiment: ELISA, TeNT captured with cAb-TT2, unlabelled binder

Binder | EC resulting in A450 0.15 [ng/mL] | maximal absorbance at 450 nm
B13 | 6.4 | 0.362
B14 | 6.3 | 0.429
B15 | 3.1 | 0.327
B16 | 4.3 | 0.27
B17 | 0.86 | 0.375

molecular target: T3, tetanus neurotoxin (TeNT), authentic …; experiment: ELISA, cAb-TT2 captured TeNT, E. coli supernatant

Binder | absorbance at 450 nm [A450]
B1 | 0.736
B2 | 0.427
B3 | 0.68
B4 | 0.868
B5 | 0.165
B6 | 0.299
B7 | 0.685
B8 | 0.483
B9 | 0.51
B10 | 1.09
B11 | 0.683
B12 | 0.548

molecular target: T4, tetanus neurotoxin (TeNT), authentic …; experiment: ELISA, directly coated TeNT, unlabelled binder

Binder | EC resulting in A450 0.2 [ng/mL] | maximal absorbance at 450 nm
B13 | 3.6 | 1.56
B14 | 2.6 | 1.52
B15 | 1.2 | 1.54
B16 | 2.4 | 1.32
B17 | 0.51 | 1.29

molecular target: T4, tetanus neurotoxin (TeNT), authentic …; experiment: ELISA, directly coated TeNT, biotinylated binder

Binder | EC resulting in A450 0.4 [ng/mL] | maximal absorbance at 450 nm
B13 | 43 | 0.985
B14 | 6.9 | 1.13
B15 | 2.1 | 1.2
B16 | 0.98 | 1.43
B17 | 0.98 | 1.26

From patent US20240376185A1 (SMIVET B V, published 2024)
